# Laboratory results reported in US20210292422A1 (published 2021).
# T1: LRP6E3E4 (UniProt O75581 631-1246)
# T1 chain: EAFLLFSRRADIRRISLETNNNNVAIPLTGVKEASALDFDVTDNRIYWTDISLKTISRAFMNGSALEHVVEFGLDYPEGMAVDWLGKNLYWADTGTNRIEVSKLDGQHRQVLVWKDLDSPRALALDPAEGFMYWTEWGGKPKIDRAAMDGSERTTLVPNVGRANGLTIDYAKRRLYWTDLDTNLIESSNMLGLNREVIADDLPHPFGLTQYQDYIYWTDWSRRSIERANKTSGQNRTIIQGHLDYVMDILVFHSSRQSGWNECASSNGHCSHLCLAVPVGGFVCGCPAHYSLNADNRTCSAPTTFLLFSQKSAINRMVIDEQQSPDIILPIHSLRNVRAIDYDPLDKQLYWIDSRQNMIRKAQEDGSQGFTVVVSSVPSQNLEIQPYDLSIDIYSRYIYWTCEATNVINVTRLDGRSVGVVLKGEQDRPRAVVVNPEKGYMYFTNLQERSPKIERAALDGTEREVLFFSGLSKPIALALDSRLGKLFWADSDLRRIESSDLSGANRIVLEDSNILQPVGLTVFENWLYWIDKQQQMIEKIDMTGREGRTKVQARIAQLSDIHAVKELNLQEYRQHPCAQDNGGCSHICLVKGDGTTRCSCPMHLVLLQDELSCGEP
# T2: LRP6E1E2 (UniProt O75581 20-630)
# T2 chain: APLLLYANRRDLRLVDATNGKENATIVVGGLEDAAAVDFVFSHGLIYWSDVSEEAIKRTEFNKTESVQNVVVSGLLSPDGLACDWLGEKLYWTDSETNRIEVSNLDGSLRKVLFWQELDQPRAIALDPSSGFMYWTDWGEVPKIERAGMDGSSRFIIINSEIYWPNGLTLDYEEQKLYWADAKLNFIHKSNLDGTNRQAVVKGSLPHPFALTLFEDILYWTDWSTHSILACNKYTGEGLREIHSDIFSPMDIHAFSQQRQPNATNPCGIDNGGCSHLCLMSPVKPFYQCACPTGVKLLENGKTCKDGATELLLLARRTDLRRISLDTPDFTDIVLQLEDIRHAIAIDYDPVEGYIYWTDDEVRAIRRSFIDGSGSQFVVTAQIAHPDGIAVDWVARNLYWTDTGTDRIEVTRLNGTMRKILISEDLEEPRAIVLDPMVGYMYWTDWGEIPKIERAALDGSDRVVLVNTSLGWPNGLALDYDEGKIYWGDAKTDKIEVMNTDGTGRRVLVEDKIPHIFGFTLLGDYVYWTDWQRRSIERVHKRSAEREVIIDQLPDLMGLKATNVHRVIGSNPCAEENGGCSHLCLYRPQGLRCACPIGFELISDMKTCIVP
# Columns and labels:
# Assay in all cases: BLI (Octet)
# LRP6E3E4 = biological target: T1, LRP6E3E4
# Frizzled 1 (Fzd1) = Frizzled 1 (Fzd1) (UniProt Q9UP38 111-230)
# LRP6E1E2 = biological target: T2, LRP6E1E2
Kd (LRP6E3E4) [nM],Kd (Frizzled 1 (Fzd1)) [nM],Kd (LRP6E1E2) [nM],Binder
0.5,,,L2:5:αGFP:Fc (bispecific antibody) EVQLVESGGGLVQPGGSLRLSCAASGFTFTSYYISWVRQAPGKGLEWVAEISPYSGSTYYADSVKGRFTISADTSKNTAYLQMNSLRAEDTAVYYCALRARPPIRLHPRGSVMDYWGQGTLVTVSSGSAASGSSGGSSSGADIQMTQSPSSLSASVGDRVTITCRASQDVSTAVAWYQQKPGKAPKLLIYSASFLYSGVPSRFSGSGSGTDFTLTISSLQPEDFATYYCQQSYTTPPTFGQGTKVEIKGSGSGQVQLVESGGGLVQPGGSLRLSCAASGFTFSRYGMHWVRQAPGKGLEWVSGISSIGSNTYYADSVKGRFTISRDNSKNTLYLQMNSLRAEDTAVYYCARWYKTYIDVWGQGTLVTVSSGGGGSGGGGSGGGGSDIELTQPPSVSVAPGQTARISCSGDNLGKKYVYWYQQKPGQAPVLVIYGDDERPSGIPERFSGSNSGNTATLTISGTQAEDEADYYCASYDSSHILIVFGGGTKLTVLGSGSGDKTHTCPPCPAPEAAGGPSVFLFPPKPKDTLMISRTPEVTCVVVDVSHEDPEVKFNWYVDGVEVHNAKTKPREEQYNSTYRVVSVLTVLHQDWLNGKEYKCKVSNKALGAPIEKTISKAKGQPREPQVYTLPPSREEMTKNQVSLTCLVKGFYPSDIAVEWESNGQPENNYKTTPPVLDSDGSFFLYSKLTVDKSRWQQGNVFSCSVMHEALHNHYTQKSLSLSPGK
,0.2,,F1:5:αGFP:Fc (bispecific antibody) EVQLVESGGGLVQPGGSLRLSCAASGFTFSHYTLSWVRQAPGKGLEWVSVISGDGSYTYYADSVKGRFTISSDNSKNTLYLQMNSLRAEDTAVYYCARNFIKYVFANWGQGTLVTVSSGGGGSGGGGSGGGGSDIELTQPPSVSVAPGQTARISCSGDNIGSFYVHWYQQKPGQAPVLVIYDKSNRPSGIPERFSGSNSGNTATLTISGTQAEDEADYYCQSYANTLSLVFGGGTKLTVLGSGSGQVQLVESGGGLVQPGGSLRLSCAASGFTFSRYGMHWVRQAPGKGLEWVSGISSIGSNTYYADSVKGRFTISRDNSKNTLYLQMNSLRAEDTAVYYCARWYKTYIDVWGQGTLVTVSSGGGGSGGGGSGGGGSDIELTQPPSVSVAPGQTARISCSGDNLGKKYVYWYQQKPGQAPVLVIYGDDERPSGIPERFSGSNSGNTATLTISGTQAEDEADYYCASYDSSHILIVFGGGTKLTVLGSGSGDKTHTCPPCPAPEAAGGPSVFLFPPKPKDTLMISRTPEVTCVVVDVSHEDPEVKFNWYVDGVEVHNAKTKPREEQYNSTYRVVSVLTVLHQDWLNGKEYKCKVSNKALGAPIEKTISKAKGQPREPQVYTLPPSREEMTKNQVSLTCLVKGFYPSDIAVEWESNGQPENNYKTTPPVLDSDGSFFLYSKLTVDKSRWQQGNVFSCSVMHEALHNHYTQKSLSLSPGK
,,16,L1:5:αGFP:Fc (bispecific antibody) DVKLVESGGGLVKLGGSLRLSCAASGFSFSTSYMSWVRQTPEKRLELVAAINLNGGSTYYSDTVKGRFTISRDNAKNTLYLQMSSLKSEDTAFYYCASELAGYGTPFAYWGQGTLVTVSAGSAASGSSGGSSSGADIVLTQSPATLSVTPGDSVSLSCKASQSISYNLHWYQQKSHESPRLLIKYTSQSISGIPSRFSGSGSGTDFTLTINNVETEDFGMYFCQQSNSWPLTFGAGTKLEVKGSGSGQVQLVESGGGLVQPGGSLRLSCAASGFTFSRYGMHWVRQAPGKGLEWVSGISSIGSNTYYADSVKGRFTISRDNSKNTLYLQMNSLRAEDTAVYYCARWYKTYIDVWGQGTLVTVSSGGGGSGGGGSGGGGSDIELTQPPSVSVAPGQTARISCSGDNLGKKYVYWYQQKPGQAPVLVIYGDDERPSGIPERFSGSNSGNTATLTISGTQAEDEADYYCASYDSSHILIVFGGGTKLTVLGSGSGDKTHTCPPCPAPEAAGGPSVFLFPPKPKDTLMISRTPEVTCVVVDVSHEDPEVKFNWYVDGVEVHNAKTKPREEQYNSTYRVVSVLTVLHQDWLNGKEYKCKVSNKALGAPIEKTISKAKGQPREPQVYTLPPSREEMTKNQVSLTCLVKGFYPSDIAVEWESNGQPENNYKTTPPVLDSDGSFFLYSKLTVDKSRWQQGNVFSCSVMHEALHNHYTQKSLSLSPGK
0.8,,,αGFP:5:L2:Fc (bispecific antibody) QVQLVESGGGLVQPGGSLRLSCAASGFTFSRYGMHWVRQAPGKGLEWVSGISSIGSNTYYADSVKGRFTISRDNSKNTLYLQMNSLRAEDTAVYYCARWYKTYIDVWGQGTLVTVSSGGGGSGGGGSGGGGSDIELTQPPSVSVAPGQTARISCSGDNLGKKYVYWYQQKPGQAPVLVIYGDDERPSGIPERFSGSNSGNTATLTISGTQAEDEADYYCASYDSSHILIVFGGGTKLTVLGSGSGEVQLVESGGGLVQPGGSLRLSCAASGFTFTSYYISWVRQAPGKGLEWVAEISPYSGSTYYADSVKGRFTISADTSKNTAYLQMNSLRAEDTAVYYCALRARPPIRLHPRGSVMDYWGQGTLVTVSSGSAASGSSGGSSSGADIQMTQSPSSLSASVGDRVTITCRASQDVSTAVAWYQQKPGKAPKLLIYSASFLYSGVPSRFSGSGSGTDFTLTISSLQPEDFATYYCQQSYTTPPTFGQGTKVEIKGSGSGDKTHTCPPCPAPEAAGGPSVFLFPPKPKDTLMISRTPEVTCVVVDVSHEDPEVKFNWYVDGVEVHNAKTKPREEQYNSTYRVVSVLTVLHQDWLNGKEYKCKVSNKALGAPIEKTISKAKGQPREPQVYTLPPSREEMTKNQVSLTCLVKGFYPSDIAVEWESNGQPENNYKTTPPVLDSDGSFFLYSKLTVDKSRWQQGNVFSCSVMHEALHNHYTQKSLSLSPGK
,2.5,,αGFP:5:F1:Fc (bispecific antibody) QVQLVESGGGLVQPGGSLRLSCAASGFTFSRYGMHWVRQAPGKGLEWVSGISSIGSNTYYADSVKGRFTISRDNSKNTLYLQMNSLRAEDTAVYYCARWYKTYIDVWGQGTLVTVSSGGGGSGGGGSGGGGSDIELTQPPSVSVAPGQTARISCSGDNLGKKYVYWYQQKPGQAPVLVIYGDDERPSGIPERFSGSNSGNTATLTISGTQAEDEADYYCASYDSSHILIVFGGGTKLTVLGSGSGEVQLVESGGGLVQPGGSLRLSCAASGFTFSHYTLSWVRQAPGKGLEWVSVISGDGSYTYYADSVKGRFTISSDNSKNTLYLQMNSLRAEDTAVYYCARNFIKYVFANWGQGTLVTVSSGGGGSGGGGSGGGGSDIELTQPPSVSVAPGQTARISCSGDNIGSFYVHWYQQKPGQAPVLVIYDKSNRPSGIPERFSGSNSGNTATLTISGTQAEDEADYYCQSYANTLSLVFGGGTKLTVLGSGSGDKTHTCPPCPAPEAAGGPSVFLFPPKPKDTLMISRTPEVTCVVVDVSHEDPEVKFNWYVDGVEVHNAKTKPREEQYNSTYRVVSVLTVLHQDWLNGKEYKCKVSNKALGAPIEKTISKAKGQPREPQVYTLPPSREEMTKNQVSLTCLVKGFYPSDIAVEWESNGQPENNYKTTPPVLDSDGSFFLYSKLTVDKSRWQQGNVFSCSVMHEALHNHYTQKSLSLSPGK
,,98,αGFP:5:L1:Fc (bispecific antibody) QVQLVESGGGLVQPGGSLRLSCAASGFTFSRYGMHWVRQAPGKGLEWVSGISSIGSNTYYADSVKGRFTISRDNSKNTLYLQMNSLRAEDTAVYYCARWYKTYIDVWGQGTLVTVSSGGGGSGGGGSGGGGSDIELTQPPSVSVAPGQTARISCSGDNLGKKYVYWYQQKPGQAPVLVIYGDDERPSGIPERFSGSNSGNTATLTISGTQAEDEADYYCASYDSSHILIVFGGGTKLTVLGSGSGDVKLVESGGGLVKLGGSLRLSCAASGFSFSTSYMSWVRQTPEKRLELVAAINLNGGSTYYSDTVKGRFTISRDNAKNTLYLQMSSLKSEDTAFYYCASELAGYGTPFAYWGQGTLVTVSAGSAASGSSGGSSSGADIVLTQSPATLSVTPGDSVSLSCKASQSISYNLHWYQQKSHESPRLLIKYTSQSISGIPSRFSGSGSGTDFTLTINNVETEDFGMYFCQQSNSWPLTFGAGTKLEVKGSGSGDKTHTCPPCPAPEAAGGPSVFLFPPKPKDTLMISRTPEVTCVVVDVSHEDPEVKFNWYVDGVEVHNAKTKPREEQYNSTYRVVSVLTVLHQDWLNGKEYKCKVSNKALGAPIEKTISKAKGQPREPQVYTLPPSREEMTKNQVSLTCLVKGFYPSDIAVEWESNGQPENNYKTTPPVLDSDGSFFLYSKLTVDKSRWQQGNVFSCSVMHEALHNHYTQKSLSLSPGK
